Experimental data reported in paper PMC11574045, “A cofactor-induced repressive type of transcription factor condensation can be induced by synthetic peptides to suppress tumorigenesis” (The EMBO Journal, 2024).

B1: SIX1 (protein, UniProt Q15475 1-284, looked up)
Homeobox protein SIX1: MSMLPSFGFTQEQVACVCEVLQQGGNLERLGRFLWSLPACDHLHKNESVLKAKAVVAFHRGNFRELYKILESHQFSPHNHPKLQQLWLKAHYVEAEKLRGRPLGAVGKYRVRRKFPLPRTIWDGEETSYCFKEKSRGVLREWYAHNPYPSPREKRELAEATGLTTTQVSNWFKNRRQRDRAAEAKERENTENNNSSSNKQNQLSPLEGGKPLMSSSEEEFSPPQSPDQNSVLLLQGNMGHARSSNYSLPGLTASQPSHGLQTHQHQLQDSLLGPLTSSLVDLGS
B2: SCX (protein, UniProt Q7RTU7 1-201, looked up)
Basic helix-loop-helix …: MSFATLRPAPPGRYLYPEVSPLSEDEDRGSDSSGSDEKPCRVHAARCGLQGARRRAGGRRAGGGGPGGRPGREPRQRHTANARERDRTNSVNTAFTALRTLIPTEPADRKLSKIETLRLASSYISHLGNVLLAGEACGDGQPCHSGPAFFHAARAGSPPPPPPPPPARDGENTQPKQICTFCLSNQRKLSKDRDRKTAIRS
B3: SIRT2 (protein, UniProt Q8IXJ6 2-389, looked up)
NAD-dependent protein …: AEPDPSHPLETQAGKVQEAQDSDSDSEGGAAGGEADMDFLRNLFSQTLSLGSQKERLLDELTLEGVARYMQSERCRRVICLVGAGISTSAGIPDFRSPSTGLYDNLEKYHLPYPEAIFEISYFKKHPEPFFALAKELYPGQFKPTICHYFMRLLKDKGLLLRCYTQNIDTLERIAGLEQEDLVEAHGTFYTSHCVSASCRHEYPLSWMKEKIFSEVTPKCEDCQSLVKPDIVFFGESLPARFFSCMQSDFLKVDLLLVMGTSLQVQPFASLISKAPLSTPRLLINKEKAGQSDPFLGMIMGLGGGMDFDSKKAYRDVAWLGECDQGCLALAELLGWKKELEDLVRREHASIDAQSGAGVPNPSTSASPKKSPPPAKDEARTTEREKPQ
B4: SCRT1 (protein, UniProt Q99M85 1-348, looked up)
Transcriptional repressor …: MPRSFLVKKVKLDTFSSADLDSSYGRARSDLGVRLQDKGYLSDYVGPASVYDGDAEAALLKGPSPEPMYAAAVRGELGPAASGSAPPPTPRPELATAAGGYINGDAAVSEGYAADAFFITDGRSRRKAANANAAAAPSTASVAAPDSDAGGGGGPGTRGSGSGSASRGGTRVGAGTEARAGSGATGAGGRHACGECGKTYATSSNLSRHKQTHRSLDSQLARRCPTCGKVYVSMPAMAMHLLTHDLRHKCGVCGKAFSRPWLLQGHMRSHTGEKPFGCAHCGKAFADRSNLRAHMQTHSAFKHFQCKRCKKSFALKSYLNKHYESACFKGGASGPATPAPPQLSPVQA
B5: SETD8 (protein, UniProt Q9NQR1 1-393, looked up)
N-lysine methyltransferase …: MGEGGAAAALVAAAAAAAAAAAAVVAGQRRRRLGRRARCHGPGRAAGGKMSKPCAVEAAAAAVAATAPGPEMVERRGPGRPRTDGENVFTGQSKIYSYMSPNKCSGMRFPLQEENSVTHHEVKCQGKPLAGIYRKREEKRNAGNAVRSAMKSEEQKIKDARKGPLVPFPNQKSEAAEPPKTPPSSCDSTNAAIAKQALKKPIKGKQAPRKKAQGKTQQNRKLTDFYPVRRSSRKSKAELQSEERKRIDELIESGKEEGMKIDLIDGKGRGVIATKQFSRGDFVVEYHGDLIEITDAKKREALYAQDPSTGCYMYYFQYLSKTYCVDATRETNRLGRLINHSKCGNCQTKLHDIDGVPHLILIASRDIAAGEELLYDYGDRSKASIEAHPWLKH
B6: SETD7 (protein, UniProt Q8WTS6 1-366, looked up)
Histone-lysine …: MDSDDEMVEEAVEGHLDDDGLPHGFCTVTYSSTDRFEGNFVHGEKNGRGKFFFFDGSTLEGYYVDDALQGQGVYTYEDGGVLQGTYVDGELNGPAQEYDTDGRLIFKGQYKDNIRHGVCWIYYPDGGSLVGEVNEDGEMTGEKIAYVYPDERTALYGKFIDGEMIEGKLATLMSTEEGRPHFELMPGNSVYHFDKSTSSCISTNALLPDPYESERVYVAESLISSAGEGLFSKVAVGPNTVMSFYNGVRITHQEVDSRDWALNGNTLSLDEETVIDVPEPYNHVSKYCASLGHKANHSFTPNCIYDMFVHPRFGPIKCIRTLRAVEADEELTVAYGYDHSPPGKSGPEAPEWYQVELKAFQATQQK
B7: BCL11A (protein, UniProt Q9H165 1-835, looked up)
BCL11 transcription factor A: MSRRKQGKPQHLSKREFSPEPLEAILTDDEPDHGPLGAPEGDHDLLTCGQCQMNFPLGDILIFIEHKRKQCNGSLCLEKAVDKPPSPSPIEMKKASNPVEVGIQVTPEDDDCLSTSSRGICPKQEHIADKLLHWRGLSSPRSAHGALIPTPGMSAEYAPQGICKDEPSSYTCTTCKQPFTSAWFLLQHAQNTHGLRIYLESEHGSPLTPRVGIPSGLGAECPSQPPLHGIHIADNNPFNLLRIPGSVSREASGLAEGRFPPTPPLFSPPPRHHLDPHRIERLGAEEMALATHHPSAFDRVLRLNPMAMEPPAMDFSRRLRELAGNTSSPPLSPGRPSPMQRLLQPFQPGSKPPFLATPPLPPLQSAPPPSQPPVKSKSCEFCGKTFKFQSNLVVHRRSHTGEKPYKCNLCDHACTQASKLKRHMKTHMHKSSPMTVKSDDGLSTASSPEPGTSDLVGSASSALKSVVAKFKSENDPNLIPENGDEEEEEDDEEEEEEEEEEEEELTESERVDYGFGLSLEAARHHENSSRGAVVGVGDESRALPDVMQGMVLSSMQHFSEAFHQVLGEKHKRGHLAEAEGHRDTCDEDSVAGESDRIDDGTVNGRGCSPGESASGGLSKKLLLGSPSSLSPFSKRIKLEKEFDLPPAAMPNTENVYSQWLAGYAASRQLKDPFLSFGDSRQSPFASSSEHSSENGSLRFSTPPGELDGGISGRSGTGSGGSTPHISGPGPGRPSSKEGRRSDTCEYCGKVFKNCSNLTVHRRSHTGERPYKCELCNYACAQSSKLTRHMKTHGQVGKDVYKCEICKMPFSVYSTLEKHMKKWHSDRVLNNDIKTE
B8: SALL1 (protein, UniProt Q9NSC2 1-1324, looked up)
Sal-like protein 1: MSRRKQAKPQHFQSDPEVASLPRRDGDTEKGQPSRPTKSKDAHVCGRCCAEFFELSDLLLHKKNCTKNQLVLIVNENPASPPETFSPSPPPDNPDEQMNDTVNKTDQVDCSDLSEHNGLDREESMEVEAPVANKSGSGTSSGSHSSTAPSSSSSSSSSSGGGGSSSTGTSAITTSLPQLGDLTTLGNFSVINSNVIIENLQSTKVAVAQFSQEARCGGASGGKLAVPALMEQLLALQQQQIHQLQLIEQIRHQILLLASQNADLPTSSSPSQGTLRTSANPLSTLSSHLSQQLAAAAGLAQSLASQSASISGVKQLPPIQLPQSSSGNTIIPSNSGSSPNMNILAAAVTTPSSEKVASSAGASHVSNPAVSSSSSPAFAISSLLSPASNPLLPQQASANSVFPSPLPNIGTTAEDLNSLSALAQQRKSKPPNVTAFEAKSTSDEAFFKHKCRFCAKVFGSDSALQIHLRSHTGERPFKCNICGNRFSTKGNLKVHFQRHKEKYPHIQMNPYPVPEHLDNIPTSTGIPYGMSIPPEKPVTSWLDTKPVLPTLTTSVGLPLPPTLPSLIPFIKTEEPAPIPISHSATSPPGSVKSDSGGPESATRNLGGLPEEAEGSTLPPSGGKSEESGMVTNSVPTASSSVLSSPAADCGPAGSATTFTNPLLPLMSEQFKAKFPFGGLLDSAQASETSKLQQLVENIDKKATDPNECIICHRVLSCQSALKMHYRTHTGERPFKCKICGRAFTTKGNLKTHYSVHRAMPPLRVQHSCPICQKKFTNAVVLQQHIRMHMGGQIPNTPVPDSYSESMESDTGSFDEKNFDDLDNFSDENMEDCPEGSIPDTPKSADASQDSLSSSPLPLEMSSIAALENQMKMINAGLAEQLQASLKSVENGSIEGDVLTNDSSSVGGDMESQSAGSPAISESTSSMQALSPSNSTQEFHKSPSIEEKPQRAVPSEFANGLSPTPVNGGALDLTSSHAEKIIKEDSLGILFPFRDRGKFKNTACDICGKTFACQSALDIHYRSHTKERPFICTVCNRGFSTKGNLKQHMLTHQMRDLPSQLFEPSSNLGPNQNSAVIPANSLSSLIKTEVNGFVHVSPQDSKDTPTSHVPSGPLSSSATSPVLLPALPRRTPKQHYCNTCGKTFSSSSALQIHERTHTGEKPFACTICGRAFTTKGNLKVHMGTHMWNSTPARRGRRLSVDGPMTFLGGNPVKFPEMFQKDLAARSGSGDPSSFWNQYAAALSNGLAMKANEISVIQNGGIPPIPGSLGSGNSSPVSGLTGNLERLQNSEPNAPLAGLEKMASSENGTNFRFTRFVEDSKEIVTS
B9: SIX2 (protein, UniProt Q9NPC8 1-291, looked up)
Homeobox protein SIX2: MSMLPTFGFTQEQVACVCEVLQQGGNIERLGRFLWSLPACEHLHKNESVLKAKAVVAFHRGNFRELYKILESHQFSPHNHAKLQQLWLKAHYIEAEKLRGRPLGAVGKYRVRRKFPLPRSIWDGEETSYCFKEKSRSVLREWYAHNPYPSPREKRELAEATGLTTTQVSNWFKNRRQRDRAAEAKERENNENSNSNSHNPLNGSGKSVLGSSEDEKTPSGTPDHSSSSPALLLSPPPPGLPSLHSLGHPPGPSAVPVPVPGGGGADPLQHHHGLQDSILNPMSANLVDLGS
B10: SIM1 (protein, UniProt P81133 1-766, looked up)
Single-minded homolog 1: MKEKSKNAARTRREKENSEFYELAKLLPLPSAITSQLDKASIIRLTTSYLKMRVVFPEGLGEAWGHSSRTSPLDNVGRELGSHLLQTLDGFIFVVAPDGKIMYISETASVHLGLSQVELTGNSIYEYIHPADHDEMTAVLTAHQPYHSHFVQEYEIERSFFLRMKCVLAKRNAGLTCGGYKVIHCSGYLKIRQYSLDMSPFDGCYQNVGLVAVGHSLPPSAVTEIKLHSNMFMFRASLDMKLIFLDSRVAELTGYEPQDLIEKTLYHHVHGCDTFHLRCAHHLLLVKGQVTTKYYRFLAKHGGWVWVQSYATIVHNSRSSRPHCIVSVNYVLTDTEYKGLQLSLDQISASKPAFSYTSSSTPTMTDNRKGAKSRLSSSKSKSRTSPYPQYSGFHTERSESDHDSQWGGSPLTDTASPQLLDPADRPGSQHDASCAYRQFSDRSSLCYGFALDHSRLVEERHFHTQACEGGRCEAGRYFLGTPQAGREPWWGSRAALPLTKASPESREAYENSMPHIASVHRIHGRGHWDEDSVVSSPDPGSASESGDRYRTEQYQSSPHEPSKIETLIRATQQMIKEEENRLQLRKAPSDQLASINGAGKKHSLCFANYQQPPPTGEVCHGSALANTSPCDHIQQREGKMLSPHENDYDNSPTALSRISSPNSDRISKSSLILAKDYLHSDISPHQTAGDHPTVSPNCFGSHRQYFDKHAYTLTGYALEHLYDSETIRNYSLGCNGSHFDVTSHLRMQPDPAQGHKGTSVIITNGS
B11: SCAND1 (protein, UniProt P57086 1-179, looked up)
SCAN domain-containing …: MAATEPILAATGSPAAVPPEKLEGAGSSSAPERNCVGSSLPEASPPAPEPSSPNAAVPEAIPTPRAAASAALELPLGPAPVSVAPQAEAEARSTPGPAGSRLGPETFRQRFRQFRYQDAAGPREAFRQLRELSRQWLRPDIRTKEQIVEMLVQEQLLAILPEAARARRIRRRTDVRITG

test system: HEK293FT cells transfected with TF library; test: Screening of TF condensates based on fluorescent puncta; format: cell-based; conditions: Figure 1B numerical data; TF library screen, one value per transcriptional factor
Method in brief: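 Each TF construct was introduced into HEK293FT cells using PEI at 4.8 μg/ml; glucose deprivation versus normal medium lasted 12 h. Automated confocal-style imaging of tagged TF staining, 50 fields per well, gave the puncta data.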

Q: B1 was tested. Which “Z score of condensed fraction” value did it give?
A: Its value is -0.6669.

Q: How did the “Z score of condensed fraction” value turn out when B2 was run?
A: Its value is -0.06618.

Q: How did the “Z score of condensed fraction” value turn out when B3 was run?
A: Its value is 0.4793.

Q: B4 was tested. Which “Z score of condensed fraction” value did it give?
A: The value was 0.5906.

Q: For B5, which “Z score of condensed fraction” value is on record?
A: The value was -0.8816.

Q: How did the “Z score of condensed fraction” value turn out when B6 was run?
A: The value was 0.4495.

Q: Which “Z score of condensed fraction” value does the source give for B7 here?
A: Its value is -0.5173.

Q: B8 was tested. Which “Z score of condensed fraction” value did it give?
A: Its value is -0.9814.

Q: Which “Z score of condensed fraction” value does the source give for B9 here?
A: Its value is -0.1884.

Q: How did the “Z score of condensed fraction” value turn out when B10 was run?
A: The value was -1.099.

Q: How did the “Z score of condensed fraction” value turn out when B11 was run?
A: The value was -0.8992.
